Key:
[1] = biological target: the molecule itself; assay: SEC + other: negative-stain electron microscopy
[2] = biological target: the molecule itself; assay: negative-stain electron microscopy; Talon eluate (TBS, 140 mM imidazole) of recombinant His-tagged protein applied at once to carbon grids, 2% uranyl acetate

B1: bifunctional acetaldehyde-alcohol dehydrogenase AdhE (Streptococcus pneumoniae), native spirosomes (enzyme)
chain: MKAMEENMADKKTVTPEEKKLVAEKHVDELVQKALVALEEMRKLNQEQVDYIVAKASVAALDAHGELALHAFEETGRGVFEDKATKNLFACEHVVNNMRHTKTVGVIEEDDVTGLTLIAEPVGVVCGITPTTNPTSTAIFKSLISLKTRNPIVFAFHPSAQESSAHAARIVRDAAIAAGAPENCVQWITQPSMEATSALMNHEGVATILATGGNAMVKAAYSCGKPALGVGAGNVPAYVEKSANIRQAAHDIVMSKSFDNGMVCASEQAVIIDKEIYDEFVAEFKSYHTYFVNKKEKALLEEFCFGVKANSKNCAGAKLNADIVGKPATWIAEQAGFTVPEGTNILAAECKEVGENEPLTREKLSPVIAVLKSESREDGITKARQMVEFNGLGHSAAIHTADEELTKEFGKAVKAIRVICNSPSTFGGIGDVYNAFLPSLTLGCGSYGRNSVGDNVSAINLLNIKKVGRRRNNMQWMKLPSKTYFERDSIQYLQKCRDVERVMIVTDHAMVELGFLDRIIEQLDLRRNKVVYQIFADVEPDPDITTVNRGTEIMRAFKPDTIIALGGGSPMDAAKVMWLFYEQPEVDFRDLVQKFMDIRKRAFKFPLLGKKTKFIAIPTTSGTGSEVTPFAVISDKANNRKYPIADYSLTPTVAIVDPALVLTVPGFVAADTGMDVLTHATEAYVSQMASDYTDGLALQAIKLVFENLESSVKNADFHSREKMHNASTIAGMAFANAFLGISHSMAHKIGAQFHTIHGRTNAILLPYVIRYNGTRPAKTATWPKYNYYRADEKYQDIARMLGLPASTPEEGVESYAKAVYELGERIGIQMNFRDQGIDEKEWKEHSRELAFLAYEDQCSPANPRLPMVDHMQEIIEDAYYGYKERPGRRK
notes: also called spirosin; 'plaited' filaments
B1: binds [1].

B2: AdhE^S.pneumoniae, C-terminally hexahistidine-tagged, expressed in E. coli (enzyme)
chain: MKAMEENMADKKTVTPEEKKLVAEKHVDELVQKALVALEEMRKLNQEQVDYIVAKASVAALDAHGELALHAFEETGRGVFEDKATKNLFACEHVVNNMRHTKTVGVIEEDDVTGLTLIAEPVGVVCGITPTTNPTSTAIFKSLISLKTRNPIVFAFHPSAQESSAHAARIVRDAAIAAGAPENCVQWITQPSMEATSALMNHEGVATILATGGNAMVKAAYSCGKPALGVGAGNVPAYVEKSANIRQAAHDIVMSKSFDNGMVCASEQAVIIDKEIYDEFVAEFKSYHTYFVNKKEKALLEEFCFGVKANSKNCAGAKLNADIVGKPATWIAEQAGFTVPEGTNILAAECKEVGENEPLTREKLSPVIAVLKSESREDGITKARQMVEFNGLGHSAAIHTADEELTKEFGKAVKAIRVICNSPSTFGGIGDVYNAFLPSLTLGCGSYGRNSVGDNVSAINLLNIKKVGRRRNNMQWMKLPSKTYFERDSIQYLQKCRDVERVMIVTDHAMVELGFLDRIIEQLDLRRNKVVYQIFADVEPDPDITTVNRGTEIMRAFKPDTIIALGGGSPMDAAKVMWLFYEQPEVDFRDLVQKFMDIRKRAFKFPLLGKKTKFIAIPTTSGTGSEVTPFAVISDKANNRKYPIADYSLTPTVAIVDPALVLTVPGFVAADTGMDVLTHATEAYVSQMASDYTDGLALQAIKLVFENLESSVKNADFHSREKMHNASTIAGMAFANAFLGISHSMAHKIGAQFHTIHGRTNAILLPYVIRYNGTRPAKTATWPKYNYYRADEKYQDIARMLGLPASTPEEGVESYAKAVYELGERIGIQMNFRDQGIDEKEWKEHSRELAFLAYEDQCSPANPRLPMVDHMQEIIEDAYYGYKERPGRRK
notes: not shown: His6, C-terminal, kept
B2: binds [2].

From publication PMC4398557, “Conserved Streptococcus pneumoniae Spirosomes Suggest a Single Type of Transformation Pilus in Competence” (PLoS Pathogens, 2015)
